B1: TAP1: known TAP1 subunit (TAP1 A allele cDNA) (protein)
chain: MASSRCPAPRGCRCLPGASLAWLGTVLLLLADWVLLRTALPRIFSLLVPTALPLLRVWAVGLSRWAVLWLGACGVLRATVGSKSENAGAQGWLAALKPLAAALGLALPGLALFRELISWGAPGSADSTRLLHWGSHPTAFVVSYAAALPAAALWHKLGSLWVPGGQGGSGNPVRRLLGCLGSETRRLSLFLVLVVLSSLGEMAIPFFTGRLTDWILQDGSADTFTRNLTLMSILTIASAVLEFVGDGIYNNTMGHVHSHLQGEVFGAVLRQETEFFQQNQTGNIMSRVTEDTSTLSDSLSENLSLFLWYLVRGLCLLGIMLWGSVSLTMVTLITLPLLFLLPKKVGKWYQLLEVQVRESLAKSSQVAIEALSAMPTVRSFANEEGEAQKFREKLQEIKTLNQKEAVAYAVNSWTTSISGMLLKVGILYIGGQLVTSGAVSSGNLVTFVLYQMQFTQAVEVLLSIYPRVQKAVGSSEKIFEYLDRTPRCPPSGLLTPLHLEGLVQFQDVSFAYPNRPDVLVLQGLTFTLRPGEVTALVGPNGSGKSTVAALLQNLYQPTGGQLLLDGKPLPQYEHRYLHRQVAAVGQEPQVFGRSLQENIAYGLTQKPTMEEITAAAVKSGAHSFISGLPQGYDTEVDEAGSQLSGGQRQAVALARALIRKPCVLILDDATSALDANSQLQVEQLLYESPERYSRSVLLITQHLSLVEQADHILFLEGGAIREGGTHQQLMEKKGCYWAMVQAPADAPE
B2: TAP1/TAP2: previously known TAP transporter, heterodimer of the TAP1 and TAP2 gene products (protein)
chain 1: B1 chain
chain 2: MRLPDLRPWTSLLLVDAALLWLLQGPLGTLLPQGLPGLWLEGTLRLGGLWGLLKLRGLLGFVGTLLLPLCLATPLTVSLRALVAGASRAPPARVASAPWSWLLVGYGAAGLSWSLWAVLSPPGAQEKEQDQVNNKVLMWRLLKLSRPDLPLLVAAFFFLVLAVLGETLIPHYSGRVIDILGGDFDPHAFASAIFFMCLFSFGSSLSAGCRGGCFTYTMSRINLRIREQLFSSLLRQDLGFFQETKTGELNSRLSSDTTLMSNWLPLNANVLLRSLVKVVGLYGFMLSISPRLTLLSLLHMPFTIAAEKVYNTRHQEVLREIQDAVARAGQVVREAVGGLQTVRSFGAEEHEVCRYKEAKEQCRQLYWRRDLERALYLLIRRVLHLGVQMLMLSCGLQQMQDGELTQGSLLSFMIYQESVGSYVQTLVYIYGDMLSNVGAAEKVFSYMDRQPNLPSPGTLAPTTLQGVVKFQDVSFAYPNRPDRPVLKGLTFTLRPGEVTALVGPNGSGKSTVAALLQNLYQPTGGQVLLDEKPISQYEHCYLHSQVVSVGQEPVLFSGSVRNNIAYGLQSCEDDKVMAAAQAAHADDFIQEMEHGIYTDVGEKGSQLAAGQKQRLAIARALVRDPRVLILDEATSALDVQCEQALQDWNSRGDRTVLVIAHRLQTVQRAHQILVLQEGKLQKLAQL

Tested on: HLA class I (A2) on T2 cells
Experiment: restoration of surface expression of HLA class I (A2) on transfected T2 cells, flow cytometry
Format: cell-based, human
Settings: T2 cells transfected with the named cDNAs; for Mean fluorescence of HLA class 1 (A2) Mean ± SD: four separate experiments, at least three stable clones; for surface expression of HLA/MHC class I: in words
Description: Plasmid DNAs were prepared using MAXI-PREP kits (Qiagen). TAP1- and TAP2-deficient T2 cells (donated by P. Cresswell, Howard Hughes Medical Institute, Yale University) (1-2×10^7 cells/ml) were transfected by electroporation with 10 μg of TAP1 and TAP2 or TAP2iso linear plasmid DNA in a 0.4-cm cuvette at 260 V and 960 μF. Subcloning and selection of transfectants were performed by culturing in the presence of hygromycin (250 μg/ml) or histidinol ([…]) for the PREP 4 and PREP8 vectors, respectively.
Immune complexes were detected with fluorescein isothiocyanate-conjugated goat anti-mouse IgG antibodies (Coulter, Hialeah, Fla.) and an Epics Elite flow cytometer (Coulter).
T2 cells were transfected with TAP1 cDNA in combination with TAP2 or TAPiso cDNAs as described above.

Row | Molecule | Mean fluorescence of HLA class 1 (A2) Mean ± SD | surface expression of HLA/MHC class I
1 | B1 | 5.19 ± .35 | no effect
2 | B2 | 7.59 ± .31 | restored surface expression
